B1: Hairpin Ribozyme (parent)
chain: GUCCUCUUUCACGUGCGCGUGAAAGAGAGAAGUGAACCAGAGAAACACACGUUGUGGUAUAUUACCUGGUA

Variants of: B1
Experiment: self-cleavage, relative activity (ratio to wild type); higher = more cleavage; co-transcriptional

Variant | self-cleavage
GUCCUCUUUCACGUGCGCGUGAAAGAGAGAAGUGGACCAGAGAAAUACACGUUGUGGUAUAUUACCUGGUA | 0.145
AUCCUCUUUCACGUGCGCGUGAAAGAGAGAAGGGAACCAGAGAAACACACGUUGUGGUAUAUUACCUGGUA | 0.119
GUCCACUUUCACGUGCGCGUGAAAGUGAGAAGUGAACCAGAGAAACACACGUUGUGGUAUAUUACCUGGUA | 0.67
GUCCUCUUUCACGUGCGCGUGAAAGAGAGAAGUGAACCAGAGAAACACACGUCGUGGUAUAAUACCUGGUA | 0.119
GUCCUCUUUCACGAGCGCGUAAAAGAGAGAAGUGAACCAGAGAAACACACGUUGUGGUAUAUUACCUGGUA | 0.936
GUCCCCUUUCACGUGCGCGUGAAACAGAGAAGUGAACCAGAGAAACACACGUUGUGGUAUAUUACCUGGUA | 0.202
GUCAUCUUUCACGUGCGCGUGAAAGAGAGAAGUGAACCAGAGAAAUACACGUUGUGGUAUAUUACCUGGUA | 0.17
GUCCUCUUUCACGUGCGCGUGAAAGAGAGAAGUGAACCAGAGAAACACACGUUGCGUUAUAUUACCUGGUA | 0.299
GUCCUCUUUCACGUGCGCGUGAAAGAGAGCAGUGAACCAGAGAACCACACGUUGUGGUAUAUUACCUGGUA | 0.126
GUCCUCUUUCACGUACGCGUGAAAGAGAGUAGUGAACCAGAGAAACACACGUUGUGGUAUAUUACCUGGUA | 0.109
GUCCUCUUUCACGUGCGCGUGAAAGAGAGAGGUGAACCAGAGAAACACACGUUGUGGUAUAUUACCUGGUG | 0.651
GUCCUCUUUCACGUGCGCGUGCAAGAGAGAAGUGAACCUGAGAAACACACGUUGUGGUAUAUUACCUGGUA | 0.461
GUCCUUUUUCACGUGCGCGUGAAAGAGAGAAGUGAACCAGAGAAACACACGUUGUGGUAUAUUACUUGGUA | 0.309
GUCCUCUUUCACGUGCGCGUGAAAGAGAGAAGUGAACCAGAGAAACACGCGUUGUGGUAUAUUACAUGGUA | 0.302
GUCCUCUUUCACGUGCGCGUAAAAGAGAGAAGUGAACCAAAGAAACACACGUUGUGGUAUAUUACCUGGUA | 0.312
GUCCUCUCUCACGUGCGCGUGAAAGAAAGAAGUGAACCAGAGAAACACACGUUGUGGUAUAUUACCUGGUA | 0.443
GUCCUCUUUCACGUGCGCGUGAAAGAGAGAAGUGAACCAGAGAAAGACACGUUGUGGUAUAUUACCAGGUA | 0.094
GUCCUUUUUCACGUGCGCGUGAAAGAGAGAAGUGAACCAGAGAAACCCACGUUGUGGUAUAUUACCUGGUA | 0.283
GUCCUCUUUCAUGUGCGCGUGAAAGAGAGAAGUGAACCAGAGAAAAACACGUUGUGGUAUAUUACCUGGUA | 0.177

Variant | self-cleavage
GUCCUCUUUCACGUGCGCGUGAAAGAGCGAAGUGAACCAGAGAAACACACGUUGUGGUAUAGUACCUGGUA | 0.18
GUCCUCUUUCACGUGCGCGUGAAAGAGAGAAGCGAACCAUAGAAACACACGUUGUGGUAUAUUACCUGGUA | 0.121
GUCCUCUUUCACGUGCGCGUGAAAGAGAGAAGUGAACCAGAGAGACACACGUUGAGGUAUAUUACCUGGUA | 0.0483
GUCCUCUUUCACGUGCGCGUGAAAGAGAGAAGUGAACCAGAGAAACACACGUUGUGGUACAUUACCUCGUA | 0.25
GUCCUCUUUCACGUGGGCGUGAAAGAGAGAAGUUAACCAGAGAAACACACGUUGUGGUAUAUUACCUGGUA | 1.34
GUCCGCUUUCACGUGCGCGAGAAAGAGAGAAGUGAACCAGAGAAACACACGUUGUGGUAUAUUACCUGGUA | 0.279
GUCCUCUUUCACGUGCGCGUGAAAGCGAUAAGUGAACCAGAGAAACACACGUUGUGGUAUAUUACCUGGUA | 0.109
GUCCUCUCUCACGUGCGCGUGAAAGAGAGAAGUGAACCAGAGAAACACACUUUGUGGUAUAUUACCUGGUA | 0.901
GUCCUCUUUCACGUGCGCGUGAAAGAGAGAAGUCAACCAGAGAAACACACGUAGUGGUAUAUUACCUGGUA | 0.963
GUCCUCUUUCACGUGAGCGUGAAAGAGAGCAGUGAACCAGAGAAACACACGUUGUGGUAUAUUACCUGGUA | 0.134
GUCCUCUUUCCCGUGCGCGUGAAAGAGAGAAGUGAACCAGAGAAACACACGUUGUGGUAUAUUACCUGUUA | 0.299
GUCCUCUUUCACGUGCGCGUGAAAGAGAGAAGAGAACCUGAGAAACACACGUUGUGGUAUAUUACCUGGUA | 0.0937
GUCCCCUUUCACGUGCGCGUGAAAGAGAGAAGUGAUCCAGAGAAACACACGUUGUGGUAUAUUACCUGGUA | 0.348
GUCCUCUUUCACGUGCACGUGUAAGAGAGAAGUGAACCAGAGAAACACACGUUGUGGUAUAUUACCUGGUA | 0.892
GUCCUCUUUCACGUGCUCGUGAAAGAGAGAAGUGAACCAGAGAGACACACGUUGUGGUAUAUUACCUGGUA | 0.273
GUCCUCUUUCACGUGCGCGUAAAAGAGAGAAGUGAACCAGAGAAACACACAUUGUGGUAUAUUACCUGGUA | 1.04
GUCCUCUUUCACGUGCGCGUUAAAGAGAGAAGUCAACCAGAGAAACACACGUUGUGGUAUAUUACCUGGUA | 1.08
GUCCUCUUUCACGUGCGCGUGAAAGUGAGAAGUGAACCAGAGACACACACGUUGUGGUAUAUUACCUGGUA | 0.0769
GUCCGCUUUCACGUGCGCGUGAAAGAGAGAAGUGAACCAGAGAAACACAAGUUGUGGUAUAUUACCUGGUA | 0.184

From the RNAGym collection of RNA variant scans (doi:10.7554/elife.80360)
